Laboratory results as given in patent publication US6200577A, “Anti-herpesviral agents and assays therefor” (priority 1996, dated 2001).
“Also recorded” adds a separate entry of the source.

How the values were obtained:
VP16 = biological target: T1, VP16 (Human herpesvirus 1, UniProt P06492); experiment: ELISA of direct binding of VP16 to plate-coated peptides; parameters: species or system HSV-1; conditions: wells coated with peptide up to 500 μg/ml; VP16 1.6 μg/ml; FIG. 10
T1 construct: Plasmid pETVP16 was used to express full-length VP16 under the control of the T7 RNA polymerase promoter; made in house; host or cells: E. coli BL21(DE3)
T1 sequence (P06492 whole entry): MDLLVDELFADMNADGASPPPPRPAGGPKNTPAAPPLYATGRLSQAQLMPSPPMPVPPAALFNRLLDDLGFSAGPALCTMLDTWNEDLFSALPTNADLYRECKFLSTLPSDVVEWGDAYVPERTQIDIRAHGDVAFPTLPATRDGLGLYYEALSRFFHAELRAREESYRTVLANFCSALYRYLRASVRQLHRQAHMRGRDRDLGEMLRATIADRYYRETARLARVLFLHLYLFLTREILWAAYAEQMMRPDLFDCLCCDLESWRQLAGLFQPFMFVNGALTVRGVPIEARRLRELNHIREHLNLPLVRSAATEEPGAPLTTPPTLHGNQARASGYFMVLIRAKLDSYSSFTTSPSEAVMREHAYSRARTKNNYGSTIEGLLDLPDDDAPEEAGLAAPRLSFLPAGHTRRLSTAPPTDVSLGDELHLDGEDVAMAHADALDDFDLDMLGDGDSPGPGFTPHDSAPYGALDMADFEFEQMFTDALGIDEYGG
Procedure: FIG. 10 Binding of VP16 to peptides. Microtitre plates were coated with 5-fold dilutions of peptides ranging from 500 μg/ml to 1 μg/ml and blocked with PBS/10% NCS. VP16 was then added to a final concentration of 1.6 μg/ml and detected with LP1. The legend for the peptides added is shown to the right of the graph.
(§1) Dilutions of proteins in PBS were coated overnight onto flat bottomed micro-titre plates (Dynatech) at 37° C. and then blocked with either 2% BSA or 10% new-born calf serum (NCS) in PBS for 1 hour at 37° C. Specific binding of a second protein to the plate-bound protein was performed for 1.5-2 hours at ambient temperature. a Excess secondary protein was removed by washing four times with PBS, 0.3% Tween 20. Bound protein was detected by incubation for 1.5-2 hours with LP1 antibody in PBS, 1% gelatin or PBS, 2% NCS. The bound antibody was detected by incubation for 1 hour at ambient temperature with anti-mouse antibody conjugated to HRP (1:500) and visualised with Smg/ml enzyme substrate 2,2'-azino-bis(3-ethylbenzthiazoline-6-sulphonic acid) (ABTS; Sigma) in citrate-phosphate buffer containing 6 μl hydrogen peroxide in a total volume of 20 ml. Optical densities were measured on a Titertek Multiscan PLUS instrument.
To examine whether VP16 could bind directly to the peptides, wells were coated with each peptide (A-J) at a range of concentrations from […] to 500 μg/ml and the plate was then blocked with […]. […] Nonetheless, the data for peptides D and E implicate direct binding of these peptides to VP16 as the mechanism for inhibiting its interaction with VP22. Peptide H also was active in experiments which prevented gB binding to VP22trunc [Section 4 (iii)] and thus also forms an aspect of the invention.

[1] = Solubility of synthetic peptides in buffer; assay type: physicochemical; conditions: peptides dissolved in 20 mM Tris-HCl, pH 8.0, 250 mM NaCl; unpurified preparations
Procedure: Synthesis and Purification of Oligopeptides. Peptides were synthesised by continuous flow Fmoc chemistry (Atherton and Sheppard, 1989; McLean et al., 1991) and, where stated in the text, were purified by preparative reverse-phase HPLC (Owsianka et al., 1993). The Mr values of peptides were determined by fast atom bombardment mass spectrometry (M-Scan) and corresponded to the predicted values. Peptides were dissolved in 20 mM Tris-HCl, pH 8.0, 250 mM NaCl and centrifuged at 11,500 g for 1 minute prior to use. […] Precipitates were removed by centrifugation before use.

[2] = biological target: T2, VP16/VP22trunc interaction (Human herpesvirus 1, UniProt P06492); experiment: ELISA of peptide inhibition of VP16 binding to VP22trunc; parameters: species or system HSV-1; conditions: D and E pure preparations, effect at 100 and 500 μg/ml; VP16 1.6 μg/ml; 160 ng VP22trunc; FIG. 9
T2 construct: Plasmid pETVP16 was used to express full-length VP16 under the control of the T7 RNA polymerase promoter; made in house; host or cells: E. coli BL21(DE3)
T2 sequence (P06492 whole entry): as above
Procedure: FIG. 9 Inhibitory effect of peptides D and E on the VP22trunc-VP16 interaction in ELISAs. Microtitre plates were coated with 160 ng of VP22trunc and blocked with PBS/10% NCS. Before addition to the wells, five-fold dilutions of the peptides, ranging from 500 μg/ml to 1 g/ml, were incubated with VP16 (1.6 μg/ml). Bound VP16 was detected with LP1 at a dilution of 1:1000. The legend for the peptides added is shown to the right of the graph. Values are shown relative to those obtained in the absence of the peptide.
as §1
To adopt a more quantitative approach, an ELISA for VP16 binding to VP22trunc was developed. Optimal conditions were determined by coating wells with various quantities of VP22trunc followed by blocking with 2% BSA. Plates were then incubated with dilutions of VP16 and the bound VP16 detected with LP1.
The studies presented above have provided strong evidence in support of peptide inhibition of the interaction between VP16 and VP22. However, quantitative analysis of the ability of peptides to block any interaction is difficult to perform by the above methods. Therefore, using the ELISA system described in Results Section 2(iii) with the exception that PBS/10% NCS was utilised as a blocking agent, the inhibitory effects of peptides D and E were examined. This modification arose due to nonspecific binding of the peptides to wells when BSA was used for blocking (data not shown).

[3] = biological target: T2, VP16/VP22trunc interaction; experiment: Far Western analysis of peptides blocking VP16 binding to immobilised VP22trunc; parameters: species or system HSV-1
Procedure: FIG. 7 Far Western analysis of the ability of peptides to block the interaction between VP16 and immobilised VP22trunc. Purified VP22trunc was added to partially purified extract of VP16 and the sample run on a 12% polyacrylamide gel. Proteins were then transferred to nitrocellulose membrane and the blot was cut into strips, with each strip containing approximately 1 g of VP22trunc. In (A), strips were pre-incubated with 1 mg of each of the following peptides: lane 2, no peptide, lane 3, peptide C; lane 4, peptide D; lane 5, peptide E; lane 6, peptide F; lane 7, peptides D and E; lane 8, peptides C and F. In (B) strips were pre-incubated with 1 mg of each of the following peptides: lane 2, no peptide, lane 3, peptide C; lane 4, purified peptide D; lane 5, purified peptide E; lane 6, peptide F. 24 g of pure VP16 was then added to strips 2 to 8 in (A) and strips 2 to 6 in (B), followed by incubation with LP1 antibody (1:1000 dilution). As a control, portions of the blot were incubated with LP1 or the 9220 antibody at a dilution of 1:1000 (lane 1 for LP1 in A and B; lane 9 in A and lane 7 in B for 9220). The apparent molecular weights of VP16 (65 KDa) and the dimer (32 KDa) and monomer (16 KDa) forms of VP22trunc are shown.
Following electrophoresis, proteins were electrotransferred to either Hybond or ProBlott (Applied Biosystems) membrane and the membrane was incubated in renaturation buffer (50 mM Tris-HCl, pH 8.0, 150 mM NaCl, 10% glycerol, 1 mM DTT) at 4° C. for 5-6 hours.
For membranes probed with either VP16 or VP22trunc, blocking was performed overnight as described for Western blot analysis. Probing with epitope-tagged VP22 or VP16 was performed in 20 mM Tris-HCl, pH 8.0, 250 mM NaCl for 1.5 hours at ambient temperature. Excess probe was removed by washing 4 times (10 minutes per wash) in 20 mM Tris-HCl, pH8.0, 250 mM NaCl, followed by incubation with the appropriate antibody at a dilution of 1:1000 in TTBS/1% gelatin for 1.5-2 hours. Bound antibody was detected as described for Western blot analysis.
Based on the studies with soluble VP16 and VP22trunc presented above, only a restricted number of peptides were examined by Far Western analysis to identify those that may prevent binding of VP16. Thus, VP22trunc was added to a crude extract of bacterially expressed VP16 and the proteins were electrophoresed on a polyacrylamide gel followed by transfer to a membrane. […] Before the addition of VP16 the blot strips in lanes 3 to 8 were incubated with crude preparations of peptides C, D, E, or E' as well as mixtures of either 0 and E or C and F. When the blot strips were incubated with peptides C and F either singly or in combination, VP16 bindincg to VP22trunc was not prevented (FIG. 7A, lanes 3, 6 and 8).

Row | Sequence | Direct binding of VP16 to plate-coated peptide (ELISA) (VP16) | Solubility [1] | Inhibition of VP16 binding to VP22trunc in ELISA [2] | Blocking of VP16 binding to immobilised VP22trunc (Far Western), crude peptides ([3]; strips pre-incubated with 1 mg of crude peptide, FIG. 7A) | Blocking of VP16 binding to immobilised VP22trunc (Far Western), repeat with purified peptides D and E ([3]; strips pre-incubated with 1 mg peptide, D and E purified, FIG. 7B)
1 | PRTDEDLNELLGITTIRVTV [Peptide G] | binding did not occur | partly; also recorded: partially insoluble | – | – | –
2 | DVVQDVPDPERKTPRVTGG [Peptide J] | binding did not occur | soluble | – | – | –
3 | GSHMARTAPTRSKTPAQGLA [Peptide A] | binding did not occur | soluble | – | – | –
4 | NLLQRANELVNPDVVQDVPD [Peptide I] | binding did not occur | soluble | – | – | –
5 | RMAAVQLWDMSRPRTDEDLN [Peptide F] | binding did not occur | soluble | neither peptides B, C nor F had any effect | not prevented | had no effect
6 | KTPAQGLARKLHFSTAPPNP [Peptide B] | binding did not occur | soluble | neither peptides B, C nor F had any effect | – | –
